Results taken from patent US8003357B2, “Acidophilic enzymes” (Helmholtz-Zentrum Fuer Infektionsforschung GmbH, priority 2005, dated 2011).

What was measured:
Type in all cases: biochemical
[1] = pH and temperature dependence, stability and activity of recombinant acidic enzymes
Method: The acidic enzymes according to the invention were expressed in E. coli using the genomiccoding sequence for the respective enzyme from Ferroplasma acidiphilum, which are described in detail below. For enzymatic conversions, reaction conditions were in 100 mM sodium acetate buffer, 100 mM citrate buffer, 100 mM HEPES buffer for 2 minutes at 30° C., using p-nitrophenol propionate as the substrate for esterase, starch in the case of glycosidases, and HindIII digested λ DNA for ligase.
The activity was assayed using p-nitrophenol propionate as a substrate for esterase, starch for αGluFA and GlyFA1, GlyFA2, and HindIII digested λ DNA for LigFA.
The acidic enzymes according to the invention in vitro show similar elevated reaction temperatures. Substrates were as described for FIG. 2 above.
An overview of catalytic and molecular properties of acidic enzymes that were heterologously expressed in E. coli is given in the following Table III: […]

[2] = Fe2+ content (ICP-MS) and Fe2+ dependence of activity, dialysis against EDTA; details: relative to wild type = 100; after dialysis against 1 mM EDTA; 100 mM sodium citrate, 10 mM FeCl2
Method: The UV-VIS absorption spectra of purified acidic enzymes are shown in FIG. 4, wherein the uninterrupted lines refer to Fe^2+ containing enzymes and the interrupted lines refer to enzymes after dialysis against EDTA containing buffer. The λ-max values found at ca. 572 nm correlate with the Fe^2+ content, i.e. disappear after incubation with EDTA or DTT for 24 h. ICP-MS analysis confirmed the presence of 0.82±0.10 mol Fe in EstFA, 0.34±0.08 mol Fe in αGluFA, […] and 0.63±0.09 mol Fe in LigFA.
In FIG. 5, relative activities of acidic enzymes with varying content of Fe^2+ are shown. For analysis, purified enzymes were incubated in 1 mM EDTA. At time intervals indicated, two aliquots were removed, one was used for hydrolysis of respective substrates, the other for ICP-MS analysis of Fe. For relative activities, activities before incubation with EDTA were used as 100% values.
When further investigating the dependence of the acidic enzymes according to the invention on Fe^2+, relative activity for EstFA, αGluFA and LigFA were investigated for their natural Fe^2+ content, e.g. wild-type, which was set to 100%, in comparison to the activity after dialysis against a 1 mM EDTA containing buffer.

TOP 2 fragmented DNA = assay: Religation of topoisomerase 2 induced DNA breaks; details: LigFA pH 4.0 to 2.0; T4 ligase acidic pH values; FIG. 9
Method: For a comparison of the religation activities of acidic LigFA to T4 ligase on DNA containing breaks caused by topoisomerase 2 (TOP 2), ligation activities were determined in vitro at various pH values. The results are shown in the non-denaturing agarose gel of FIG. 9.
DNA was incubated with TOP 2 to induce DNA damage. At pH 5.0, TOP 2 caused DNA breaks (lane 2) but not at pH 3.0 (lane 3).

[3] = tested on: 5′ phosphorylated oligonucleotides; Sau3A digested λ DNA; assay: DNA ligation using LigFA; details: 40° C.
Method: For DNA ligation, double-stranded DNA fragments, each comprising a complementary 3′ overhang which were phosphorylated in 5′ can be ligated in a total volume of 20 μL ligation buffer (100 mM Na-citrate, pH 3.0, 10 μM Fe^2+, 0.01-0.1 mM ATP, optionally 0.5 mM dithiothreitol), 0.1-5 micrograms DNA and 1 to 20 nmoles ligase. The reaction conditions are 40° C. for 5 minutes to 2 hours, the reaction can be stopped by the addition of stop buffer 98% (vol/vol) formamide, 10 mM EDTA, 0.05% bromophenol blue, 0.05% xylene cyanol, 0.2% SDS), followed by heating to 95° C. for 5 minutes or, alternatively, by adding stop/loading buffer (30% sucrose, 150 mM EDTA, 0.15% SDS, 0.03% bromophenol blue), and heating to 90° C. for 2 minutes.
Oligonucleotides were phosphorylated in 5′.
Reactions were carried out in different buffers: HEPES, pH 7.0 (lane 1), HEPES, pH 6.0 (lane 2), sodium acetate, pH 5.0 (lane 3), sodium acetate, pH 4.0 (lane 4), sodium citrate, pH 3.0 to 0.5 (lanes 5 to 9, respectively). For detection of ligation, gel electrophoresis on a 10% denaturing polyacrylamide gel containing 7 M urea in TBE buffer (90 mM Tris-borate, 2.5 mM EDTA), staining with ethidium bromide. A densitometric reproduction of the gel region containing 60 base fragments is represented in FIG. 7. […]

B1: LigFA: DNA ligase obtainable from Ferroplasma acidiphilum, 595 amino acids, Seq. ID No. 3, Fe2+ dependent (protein, listed as Ferroplasma acidiphilum)
chain: MHLMNMVDPDFNSLIELSKSAGDMTKIEPAMLRNFLDESSLSSRGAPVEIKEIKDYKIKLDGRTLNARMYDDNNAKSAILYYHGGGFLFGNIETYDNYCRFLAKESGVKIISIEYRLAPEHKFPDAFNDAYDSFHYIAKKKKDFGIEGRIGVAGDSAGANLAAALCLKCRDGKTEMPAVQVLFYPSLAPDNFSRSFIEYSDNYVLTGKMIRYFGNMYSKNMQDLINPYFSPLVADDFSNLPPAIMVTNEYDPLRDPEETYVKKLREAGVRAVGIRGIGMIHGSATDFEVSDGARNIVKMVARIIPDYL
modifications: CDS (1)..(927) est FA
notes: ID No. 3, Fe2+ dependent
[1]; FIG. 2, LigFA pH 3.0, EstFA and αGluFA pH 2.0 at 40 and 50° C., GlyFA1 and GlyFA2 pH 4.0 at 40° C.
  enzymatic stability at elevated temperatures: good stability
[1]; measured at optimum pH
  Optimum temperature: 40 °C
[1]; measured at optimum temperature
  Optimum pH: 1.5-3.0
[2]
  activity, +EDTA: 0.15%
TOP 2 fragmented DNA
  religation of TOP 2 fragmented DNA at acidic pH: clearly demonstrated
[3]; 20 nM LigFA, 2 hours
  ligation of Sau3A digested λ DNA: demonstrates ligation
[3]; 20 nM ligFA, 5 minutes
  ligation of two oligonucleotides (35 and 25 bases) on a 70 base oligonucleotide: ligation was obtained
